Results as given in article PMC10718521, “Complexity of αvβ6-integrin targeting RGD peptide trimers: emergence of non-specific binding by synergistic interaction” (RSC Medicinal Chemistry, 2023).
[ ]: non-standard residue; d: D form. The star is where a group is joined. NMeK = CN[C@@H](CCCCN)C(=O)O; Pent4ynoyl = C#CCCC(=O)*

Experiments:
in vivo = assay: in vivo; set-up: species or system mice; conditions: CB17 SCID, mouse, total radioactivity
Description: The biodistribution of all ^68Ga-labeled peptide trimers was investigated in severe combined immunodeficiency (SCID) mice bearing subcutaneous xenografts of the αvβ6-integrin expressing human lung adenocarcinoma cell line H2009 on their right shoulders.
(§1) Unless otherwise noted, the materials and the instrumentation used (analytical and preparative HPLC, ESI-MS, gamma counter, centrifuge), and the experimental procedures (^68Ga radiolabeling and radio-TLC for quality control, determination of log D7.4, cultivation of H2009 human lung adenocarcinoma cells, generation of tumor xenografts in CB17 SCID mice, small-animal PET, and biodistribution) were described before.[19] All animal experiments have been carried out according to applicable law and institutional guidelines of Technical University of Munich, and were approved by the responsible local authority (Regierung von Oberbayern). The H2009 cells were regularly authenticated and tested for mycoplasma contamination. The affinities of the pentynoic amide functionalized peptides were determined employing a well-established ELISA protocol on immobilized integrins.[36] TRAP-triazide,[38]FF (previously termed AvB6),[32] and YY (also referred to as Tyr2-alkyne)[33] were synthesized as described previously. RP-HPLC for assessment of compound polarity was done on a 150 × 4.6 mm ReproSil-Pur 120 C18-AQ 5 μm column, with a flow of 0.75 mL min^−1 and a gradient of 10–50% MeCN in water, both containing 0.1% trifluoroacetic acid, within 15 min. The required ^natGa-complexes of the peptide trimers were synthesized by reaction with equimolar amounts of aq. GaCl3 as described.[19]

[1] = format: physicochemical; conditions: pH 7.4
Description: The trimers were labeled with ^68Ga for biodistribution and small-animal PET experiments employing a fully automated method.[39] Non-radioactive reference compounds were obtained by complexation of equimolar amounts of ^natGa^3+ in form of the aq. chloride solution.[39] The polarity of the ^68Ga or ^natGa^3+ containing conjugates, respectively, was assessed by two established proxies, namely the n-octanol/water distribution coefficient at pH 7.4, log D7.4, and the retention time tR on a reverse-phase HPLC column with a suitable liquid-phase gradient (10–50% acetonitrile in water with 0.1% trifluoroacetic acid) (see Fig. 2a). […] A measurable decrease of the log D7.4 was only observed for ≥3 Tyr. […]
as §1

α5β1-integrin = α5β1-integrin (Homo sapiens, UniProt P05556+P08648); set-up: method as in PMID 34559266; conditions: ELISA; read-out: IC50 (95% confidence interval) α5β1; cited from earlier work
αvβ3-integrin = αvβ3-integrin (Homo sapiens, UniProt P05106+P06756); set-up: method as in PMID 34559266; conditions: ELISA; read-out: IC50 (95% confidence interval) αvβ3; cited from earlier work
αvβ6-integrin = αvβ6-integrin (Homo sapiens, UniProt P06756+P18564); set-up: method as in PMID 34559266; conditions: ELISA; read-out: IC50 (95% confidence interval) αvβ6; cited from earlier work
αvβ8-integrin = αvβ8-integrin (Homo sapiens, UniProt P06756+P26012); set-up: method as in PMID 34559266; conditions: ELISA; read-out: IC50 (95% confidence interval) αvβ8; cited from earlier work
[2] = tumor/organ ratio Heart (myocard)
[3] = tumor/organ ratio Large intestine (empty)
[4] = tumor/organ ratio Small intestine (empty)
[5] = tumor/organ ratio Stomach (empty)

Chain of αvβ6-integrin (P06756 31-992 limits assumed): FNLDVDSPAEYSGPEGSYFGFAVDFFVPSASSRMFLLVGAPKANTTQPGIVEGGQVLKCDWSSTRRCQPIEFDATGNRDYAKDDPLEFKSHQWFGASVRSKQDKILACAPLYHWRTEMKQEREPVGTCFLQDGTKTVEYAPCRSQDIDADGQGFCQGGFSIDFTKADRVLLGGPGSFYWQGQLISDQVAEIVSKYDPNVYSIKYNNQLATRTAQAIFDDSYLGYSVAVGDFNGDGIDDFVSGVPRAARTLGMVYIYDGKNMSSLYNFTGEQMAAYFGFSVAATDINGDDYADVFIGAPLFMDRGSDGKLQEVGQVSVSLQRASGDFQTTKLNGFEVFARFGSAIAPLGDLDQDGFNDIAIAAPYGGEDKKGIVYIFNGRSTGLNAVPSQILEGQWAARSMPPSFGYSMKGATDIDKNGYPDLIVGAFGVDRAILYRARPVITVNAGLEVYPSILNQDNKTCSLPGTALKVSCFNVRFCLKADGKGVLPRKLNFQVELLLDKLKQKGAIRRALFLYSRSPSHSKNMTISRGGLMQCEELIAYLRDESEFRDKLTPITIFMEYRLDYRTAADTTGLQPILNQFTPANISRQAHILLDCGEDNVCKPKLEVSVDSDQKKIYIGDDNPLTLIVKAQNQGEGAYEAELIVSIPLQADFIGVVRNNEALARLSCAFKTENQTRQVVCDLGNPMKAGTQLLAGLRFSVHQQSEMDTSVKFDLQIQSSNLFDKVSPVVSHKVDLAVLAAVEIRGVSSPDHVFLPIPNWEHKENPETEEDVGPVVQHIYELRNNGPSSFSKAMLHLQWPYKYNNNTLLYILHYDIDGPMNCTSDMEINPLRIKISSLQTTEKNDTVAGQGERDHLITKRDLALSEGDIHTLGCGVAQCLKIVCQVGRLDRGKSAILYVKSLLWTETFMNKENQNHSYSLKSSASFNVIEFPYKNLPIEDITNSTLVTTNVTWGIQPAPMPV
Chain of αvβ6-integrin (P18564 22-707 limits assumed): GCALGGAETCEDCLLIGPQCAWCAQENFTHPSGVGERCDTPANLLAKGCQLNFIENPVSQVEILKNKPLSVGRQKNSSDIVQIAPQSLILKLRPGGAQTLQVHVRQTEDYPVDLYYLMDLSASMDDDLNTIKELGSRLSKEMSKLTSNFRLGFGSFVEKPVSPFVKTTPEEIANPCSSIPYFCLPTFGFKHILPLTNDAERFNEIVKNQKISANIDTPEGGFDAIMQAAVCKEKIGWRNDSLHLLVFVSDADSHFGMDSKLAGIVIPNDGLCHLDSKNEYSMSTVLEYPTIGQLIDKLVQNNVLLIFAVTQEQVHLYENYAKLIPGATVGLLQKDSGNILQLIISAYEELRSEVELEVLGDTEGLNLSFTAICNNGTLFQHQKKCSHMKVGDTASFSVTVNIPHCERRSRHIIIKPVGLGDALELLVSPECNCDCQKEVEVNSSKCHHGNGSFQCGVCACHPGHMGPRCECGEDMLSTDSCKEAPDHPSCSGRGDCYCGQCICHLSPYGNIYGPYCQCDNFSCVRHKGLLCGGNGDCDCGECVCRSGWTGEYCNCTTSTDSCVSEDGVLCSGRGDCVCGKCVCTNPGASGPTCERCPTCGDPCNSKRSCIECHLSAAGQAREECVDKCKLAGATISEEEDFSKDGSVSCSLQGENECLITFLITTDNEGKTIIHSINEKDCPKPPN
Chain of αvβ8-integrin (P06756 31-992 limits assumed): as the sequence (P06756 31-992 limits assumed) above
Chain of αvβ8-integrin (P26012 43-684 limits assumed): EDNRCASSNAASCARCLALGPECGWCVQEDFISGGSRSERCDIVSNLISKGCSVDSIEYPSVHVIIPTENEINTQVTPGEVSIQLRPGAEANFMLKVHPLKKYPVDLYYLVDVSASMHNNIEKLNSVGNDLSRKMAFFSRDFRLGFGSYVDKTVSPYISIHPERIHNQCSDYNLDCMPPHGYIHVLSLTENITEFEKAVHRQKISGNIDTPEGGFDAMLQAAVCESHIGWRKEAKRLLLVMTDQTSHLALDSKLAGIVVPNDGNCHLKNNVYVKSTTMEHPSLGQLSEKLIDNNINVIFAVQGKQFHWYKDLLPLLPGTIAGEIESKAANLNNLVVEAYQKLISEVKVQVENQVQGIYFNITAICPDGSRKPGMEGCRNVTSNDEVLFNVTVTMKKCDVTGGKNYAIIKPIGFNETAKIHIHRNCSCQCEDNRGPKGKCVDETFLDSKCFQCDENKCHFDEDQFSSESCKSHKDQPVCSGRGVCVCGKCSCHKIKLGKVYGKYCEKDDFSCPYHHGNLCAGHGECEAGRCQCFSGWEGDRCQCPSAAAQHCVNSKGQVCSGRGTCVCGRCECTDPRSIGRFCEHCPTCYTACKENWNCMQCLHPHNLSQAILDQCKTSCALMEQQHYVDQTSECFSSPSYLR
Chain of α5β1-integrin (P08648 42-995 limits assumed): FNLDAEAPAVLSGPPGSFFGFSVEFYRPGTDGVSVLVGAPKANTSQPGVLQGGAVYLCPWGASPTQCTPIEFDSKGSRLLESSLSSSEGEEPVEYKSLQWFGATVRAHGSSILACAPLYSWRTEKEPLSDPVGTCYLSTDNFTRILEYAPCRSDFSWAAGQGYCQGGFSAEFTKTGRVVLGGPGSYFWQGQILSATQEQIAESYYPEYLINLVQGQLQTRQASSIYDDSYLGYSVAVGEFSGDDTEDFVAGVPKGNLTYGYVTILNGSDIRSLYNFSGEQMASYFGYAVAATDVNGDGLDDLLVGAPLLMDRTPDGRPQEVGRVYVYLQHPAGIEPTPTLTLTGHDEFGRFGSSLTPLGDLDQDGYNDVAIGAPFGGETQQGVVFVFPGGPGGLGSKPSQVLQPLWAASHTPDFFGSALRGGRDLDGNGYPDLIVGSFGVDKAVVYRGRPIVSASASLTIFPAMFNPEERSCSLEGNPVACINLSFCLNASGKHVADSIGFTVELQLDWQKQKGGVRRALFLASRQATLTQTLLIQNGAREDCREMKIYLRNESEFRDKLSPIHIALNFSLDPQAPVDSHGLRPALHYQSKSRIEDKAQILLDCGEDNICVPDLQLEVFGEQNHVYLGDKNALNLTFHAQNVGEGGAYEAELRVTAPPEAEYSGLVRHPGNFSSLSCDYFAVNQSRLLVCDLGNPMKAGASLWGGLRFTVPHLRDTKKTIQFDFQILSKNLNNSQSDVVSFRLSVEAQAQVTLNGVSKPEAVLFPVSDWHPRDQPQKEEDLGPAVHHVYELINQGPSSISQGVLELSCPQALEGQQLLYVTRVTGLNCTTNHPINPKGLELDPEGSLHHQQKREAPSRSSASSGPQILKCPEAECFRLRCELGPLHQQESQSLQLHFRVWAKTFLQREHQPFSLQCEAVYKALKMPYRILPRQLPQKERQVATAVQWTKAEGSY
Chain of α5β1-integrin (P05556 21-728 limits assumed): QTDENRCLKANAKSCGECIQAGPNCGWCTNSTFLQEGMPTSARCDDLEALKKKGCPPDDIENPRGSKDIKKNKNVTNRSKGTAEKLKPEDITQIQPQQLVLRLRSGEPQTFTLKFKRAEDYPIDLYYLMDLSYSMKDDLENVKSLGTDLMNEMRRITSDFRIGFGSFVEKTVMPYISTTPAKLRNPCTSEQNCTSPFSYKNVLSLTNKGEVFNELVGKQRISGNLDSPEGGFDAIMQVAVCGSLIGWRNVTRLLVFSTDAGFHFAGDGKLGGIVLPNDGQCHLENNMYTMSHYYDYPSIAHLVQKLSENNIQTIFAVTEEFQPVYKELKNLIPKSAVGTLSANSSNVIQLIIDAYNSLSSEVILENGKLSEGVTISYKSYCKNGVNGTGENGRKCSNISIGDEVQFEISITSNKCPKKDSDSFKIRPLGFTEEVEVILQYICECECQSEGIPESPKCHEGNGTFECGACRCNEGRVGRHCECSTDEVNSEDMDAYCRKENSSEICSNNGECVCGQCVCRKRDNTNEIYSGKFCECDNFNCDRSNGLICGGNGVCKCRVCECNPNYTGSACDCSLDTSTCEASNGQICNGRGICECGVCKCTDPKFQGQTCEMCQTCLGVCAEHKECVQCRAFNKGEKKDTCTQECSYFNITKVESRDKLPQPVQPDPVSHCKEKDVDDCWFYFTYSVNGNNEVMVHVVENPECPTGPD

| Compound | tissue uptake at 1.5 h (in vivo; Adrenals uptake) [%ID/g] | tissue uptake at 1.5 h (in vivo; Blood uptake) [%ID/g] | tissue uptake at 1.5 h (in vivo; Heart (myocard) uptake) [%ID/g] | tissue uptake at 1.5 h (in vivo; Kidneys uptake) [%ID/g] | tissue uptake at 1.5 h (in vivo; Large intestine (empty) uptake) [%ID/g] | tissue uptake at 1.5 h (in vivo; Liver uptake) [%ID/g] | tissue uptake at 1.5 h (in vivo; Lung uptake) [%ID/g] | tissue uptake at 1.5 h (in vivo; Muscle uptake) [%ID/g] | tissue uptake at 1.5 h (in vivo; Pancreas uptake) [%ID/g] | tissue uptake at 1.5 h (in vivo; Small intestine (empty) uptake) [%ID/g] | tissue uptake at 1.5 h (in vivo; Spleen uptake) [%ID/g] | tissue uptake at 1.5 h (in vivo; Stomach (empty) uptake) [%ID/g] | tissue uptake at 1.5 h (in vivo; Tumor H2009 uptake) [%ID/g] | tissue to tissue ratio at 1.5 h (in vivo; tumor/organ ratio Adrenals) | tissue to tissue ratio at 1.5 h (in vivo; tumor/organ ratio Blood) | tissue to tissue ratio at 1.5 h (in vivo; [2]) | tissue to tissue ratio at 1.5 h (in vivo; tumor/organ ratio Kidneys) | tissue to tissue ratio at 1.5 h (in vivo; [3]) | tissue to tissue ratio at 1.5 h (in vivo; tumor/organ ratio Liver) | logD [1] | other results |
| --- | --- | --- | --- | --- | --- | --- | --- | --- | --- | --- | --- | --- | --- | --- | --- | --- | --- | --- | --- | --- | --- |
| CC(C)C[C@@H]1NC(=O)[C@H](CC(=O)O)NC(=O)CNC(=O)[C@H](CCCNC(=N)N)NC(=O)[C@H](Cc2ccc(O)cc2)NC(=O)[C@H](CCCCNC(=O)CCc2cn(CCCNC(=O)CCP(=O)(O)CN3CCN(CP(=O)(O)CCC(=O)NCCCn4cc(CCC(=O)NCCCC[C@H]5C(=O)N[C@@H](Cc6ccc(O)cc6)C(=O)N[C@@H](CCCNC(=N)N)C(=O)NCC(=O)N[C@@H](CC(=O)O)C(=O)N[C@@H](CC(C)C)C(=O)N[C@@H](C)C(=O)N[C@@H](Cc6ccccc6)C(=O)N6CCC[C@@H]6C(=O)N5C)nn4)CCN(CP(=O)(O)CCC(=O)NCCCn4cc(CCC(=O)NCCCC[C@H]5C(=O)N[C@@H](Cc6ccc(O)cc6)C(=O)N[C@@H](CCCNC(=N)N)C(=O)NCC(=O)N[C@@H](CC(=O)O)C(=O)N[C@@H](CC(C)C)C(=O)N[C@@H](C)C(=O)N[C@@H](Cc6ccccc6)C(=O)N6CCC[C@@H]6C(=O)N5C)nn4)CC3)nn2)N(C)C(=O)[C@H]2CCCN2C(=O)[C@H](Cc2ccccc2)NC(=O)[C@H](C)NC1=O (68Ga complex, metal not drawn) [Y3Y] | 0.81 ± 0.41 | 1.13 ± 0.25 | 0.66 ± 0.16 | 72.6 ± 5.25 | 3.94 ± 1.85 | 1.23 ± 0.19 | 4.96 ± 0.48 | 0.51 ± 0.11 | 0.33 ± 0.07 | 1.69 ± 0.2 | 3.82 ± 0.82 | 4.03 ± 1.36 | 5.92 ± 2.07 | 6.7 ± 3 | 4.9 ± 0.5 | 8.5 ± 1.1 | 0.1 | 1.8 ± 1.1 | 4.4 ± 0.7 | -1.7 ± 0.1 | tissue to tissue ratio at 1.5 h (in vivo; tumor/organ ratio Lung): 1 ± 0.2; tissue to tissue ratio at 1.5 h (in vivo; tumor/organ ratio Muscle): 10.7 ± 1.1; tissue to tissue ratio at 1.5 h (in vivo; tumor/organ ratio Pancreas): 17 ± 1.4; tissue to tissue ratio at 1.5 h (in vivo; [4]): 3.2 ± 0.6; tissue to tissue ratio at 1.5 h (in vivo; tumor/organ ratio Spleen): 1.4 ± 0.2; tissue to tissue ratio at 1.5 h (in vivo; [5]): 1.5 ± 0.7 |
| CC(C)C[C@@H]1NC(=O)[C@H](CC(=O)O)NC(=O)CNC(=O)[C@H](CCCNC(=N)N)NC(=O)[C@H](Cc2ccccc2)NC(=O)[C@H](CCCCNC(=O)CCc2cn(CCCNC(=O)CCP(=O)(O)CN3CCN(CP(=O)(O)CCC(=O)NCCCn4cc(CCC(=O)NCCCC[C@H]5C(=O)N[C@@H](Cc6ccc(O)cc6)C(=O)N[C@@H](CCCNC(=N)N)C(=O)NCC(=O)N[C@@H](CC(=O)O)C(=O)N[C@@H](CC(C)C)C(=O)N[C@@H](C)C(=O)N[C@@H](Cc6ccc(O)cc6)C(=O)N6CCC[C@@H]6C(=O)N5C)nn4)CCN(CP(=O)(O)CCC(=O)NCCCn4cc(CCC(=O)NCCCC[C@H]5C(=O)N[C@@H](Cc6ccc(O)cc6)C(=O)N[C@@H](CCCNC(=N)N)C(=O)NCC(=O)N[C@@H](CC(=O)O)C(=O)N[C@@H](CC(C)C)C(=O)N[C@@H](C)C(=O)N[C@@H](Cc6ccc(O)cc6)C(=O)N6CCC[C@@H]6C(=O)N5C)nn4)CC3)nn2)N(C)C(=O)[C@H]2CCCN2C(=O)[C@H](Cc2ccccc2)NC(=O)[C@H](C)NC1=O (68Ga complex, metal not drawn) [Y4] | 0.71 ± 0.37 | 0.86 ± 0.26 | 0.47 ± 0.12 | 91.3 ± 8.28 | 2.29 ± 0.59 | 0.93 ± 0.14 | 3.22 ± 0.63 | 1.41 ± 0.06 | 0.28 ± 0.08 | 1.35 ± 0.53 | 1.57 ± 0.57 | 4.92 ± 1.06 | 4.47 ± 0.96 | 7.1 ± 1.9 | 5.5 ± 1.4 | 9.6 ± 1.3 | 0.1 | 2.1 ± 0.6 | 5 ± 0.5 | -1.9 ± 0.1 | tissue to tissue ratio at 1.5 h (in vivo; tumor/organ ratio Lung): 1.4 ± 0.2; tissue to tissue ratio at 1.5 h (in vivo; tumor/organ ratio Muscle): 12.2 ± 2.8; tissue to tissue ratio at 1.5 h (in vivo; tumor/organ ratio Pancreas): 16.5 ± 1.6; tissue to tissue ratio at 1.5 h (in vivo; [4]): 3.7 ± 1; tissue to tissue ratio at 1.5 h (in vivo; tumor/organ ratio Spleen): 3 ± 0.7; tissue to tissue ratio at 1.5 h (in vivo; [5]): 1 ± 0.3 |
| CC(C)C[C@@H]1NC(=O)[C@H](CC(=O)O)NC(=O)CNC(=O)[C@H](CCCNC(=N)N)NC(=O)[C@H](Cc2ccc(O)cc2)NC(=O)[C@H](CCCCNC(=O)CCc2cn(CCCNC(=O)CCP(=O)(O)CN3CCN(CP(=O)(O)CCC(=O)NCCCn4cc(CCC(=O)NCCCC[C@H]5C(=O)N[C@@H](Cc6ccc(O)cc6)C(=O)N[C@@H](CCCNC(=N)N)C(=O)NCC(=O)N[C@@H](CC(=O)O)C(=O)N[C@@H](CC(C)C)C(=O)N[C@@H](C)C(=O)N[C@@H](Cc6ccc(O)cc6)C(=O)N6CCC[C@@H]6C(=O)N5C)nn4)CCN(CP(=O)(O)CCC(=O)NCCCn4cc(CCC(=O)NCCCC[C@H]5C(=O)N[C@@H](Cc6ccc(O)cc6)C(=O)N[C@@H](CCCNC(=N)N)C(=O)NCC(=O)N[C@@H](CC(=O)O)C(=O)N[C@@H](CC(C)C)C(=O)N[C@@H](C)C(=O)N[C@@H](Cc6ccc(O)cc6)C(=O)N6CCC[C@@H]6C(=O)N5C)nn4)CC3)nn2)N(C)C(=O)[C@H]2CCCN2C(=O)[C@H](Cc2ccc(O)cc2)NC(=O)[C@H](C)NC1=O (68Ga complex, metal not drawn) [Y6] | 0.5 ± 0.11 | 1.03 ± 0.21 | 0.59 ± 0.11 | 95.7 ± 12.6 | 4.36 ± 0.77 | 0.73 ± 0.11 | 4.47 ± 1.12 | 0.68 ± 0.18 | 0.27 ± 0.04 | 2.72 ± 1.15 | 3.91 ± 0.91 | 6.24 ± 1.24 | 7.52 ± 1.21 |  |  |  |  |  |  | -2.1 ± 0.1 |  |
| FF: cyclo[FRGDLAFp(NMe)K] bearing 4-pentynoic amide on the Lys side chain; alkyne-functionalized peptide monomer |  |  |  |  |  |  |  |  |  |  |  |  |  |  |  |  |  |  |  |  | IC50 (α5β1-integrin): 0.226 µM; IC50 (αvβ3-integrin): 0.424 µM; IC50 (αvβ6-integrin): 0.00017 µM; IC50 (αvβ8-integrin): 0.032 µM |
| YY: cyclo[YRGDLAYp(NMe)K] bearing 4-pentynoic amide on the Lys side chain; alkyne-functionalized peptide monomer (cyclo(YRGDLAY[dP][NMeK](Pent4ynoyl)); SMILES C#CCCC(=O)NCCCC[C@H]1C(=O)N[C@@H](Cc2ccc(O)cc2)C(=O)N[C@@H](CCCNC(=N)N)C(=O)NCC(=O)N[C@@H](CC(=O)O)C(=O)N[C@@H](CC(C)C)C(=O)N[C@@H](C)C(=O)N[C@@H](Cc2ccc(O)cc2)C(=O)N2CCC[C@@H]2C(=O)N1C) |  |  |  |  |  |  |  |  |  |  |  |  |  |  |  |  |  |  |  |  | IC50 (α5β1-integrin): 0.15 µM; IC50 (αvβ3-integrin): 0.219 µM; IC50 (αvβ6-integrin): 0.00084 µM; IC50 (αvβ8-integrin): 0.026 µM |
